# Results from article PMC3820547 (2013).
# B1: Replication Protein A (Q9V1Z1, Q9V1Y9, Q9V1Z0), His-tagged RPA complex (complex)
# chain 1: MVNVKNRNILRYSKVVDMTVLTKDRIIEIIERKTGMSREEIEEEIRKIMEEDPYLSEQGAAALLAERLGIDLIEKEEVSLMRISELYPGMDPREVNVVGRVLKKYPPREYTRKDGSVGRVASLIIYDDSGRARVVLWDAKVSEYYNKIEVGDVIKVLDAQVKESLSGLPELHINFRARIILNPDDPRVEMIPPLEEVRVATYTRKKIKDIEAGDRFVEVRGTIAKVYRVLTYDACPECKKKVDYDEGLGVWICPEHGEVQPIKMTILDFGLDDGTGYIRVTLFGDDAEELLGVSPEEIAEKIKELEESGLTTKEAARKLAEDEFYNIIGREIVVRGNVIEDRFLGLILRASSWEDVDYRREIERIKEELEKLGVM
# chain 2: MVIEMKKRMPATRLYIKDILEGYFVKSEGDFEPNYLITKYARKVYRAKIVGTVVREPLIAEDETYGKFQVDDGTGVIWVLGFRDDTKFAKLVRKGDLVQVIGKIAEWRDDKQILVEGVSKVHPNMWILHRYETLKEKIEHIKKAKIALEIYNQYGITAKSKVIAKNKGIEEELLEVIDELYGIMMEERSIEEPMEELLEEEIPEEKEENELLEKAKEDILNILRQKRTAISRKYILKKLGDKYDEETIDDAITELLAQGEIYEPETGYYKLL
# chain 3: MEVQVRRRKPAVERKISEIREEDTRVSLIGRVIKVDKMDYMFWLDDGTGVAIIESESDLPKVGQVVRVIGRIIRNEEGIHIYAEVIQDFSDADLEALEEIRELERKLLPRLEGEIVW
# B2: Primase small subunit P41 (Q9V292), HIS-tagged (natural protein)
# chain: MLLREVTKEERKEFYSNEWNAKQIPDFILQNLDKREFGFDHTGEGPSDRKNSYTDVRDLEDYIKATAPYAVYSSVAFYEKPQEMEGWLGAELVFDIDAKDLPLRRCNHEPGKVCPICLNDAKEIARDTLIVLKEELGFEDVHVVYSGRGYHIRVMDGWALSLDSKSRERILSFISASEIEDHSEFRKMLLERRGWFVLNHGYPRVFRLRFGYFILRVKVEHLINFGIRKNIAKRILDNKETIYEEFVRKGILAAFPDGVGIESLAKLFALSTRFSKAYFDGRVTVDLKRILRLPSTLHSKVGLIAKYIGNNERDVMRFNPFKHAVPKFRRKEVKEEYKRFLEENF
# What was measured:
# Assay in all cases: SPR; RPA bound to 32mer ssDNA
# [1] = target: T1, DNA Polymerase D (Q9V2F3, Q9V2F4), HIS-tagged complex (Pyrococcus abyssi, UniProt Q9V2F3 1-619; Q9V2F4 1-1455)
# [2] = target: T1, DNA Polymerase D (Q9V2F3, Q9V2F4), …; remark: listed apart in the source
# [3] = target: B1
# [4] = target: B1
Binder,koff [1] [s⁻¹],Kd [2] [nM],koff [3] [s⁻¹],Kd [4] [nM]
B1,0.000202,51,–,–
B2,–,–,0.000454,52
